Reference: patent publication US10683335B2, “Freeze-dried preparation containing high-purity PTH and method for producing same” (ASAHI KASEI PHARMA CORPORATION, priority 2011, dated 2020)

Columns and labels:
[1] = HPLC area percentage method: amount of PTH analogs in freeze-dried preparations and bulk drug (Test Example 1); type: physicochemical; conditions: human PTH (1-34) bulk drug lot, HPLC peak area %
[2] = Ozone exposure forced degradation of human PTH (1-34) solution (Test Example 2); type: physicochemical; conditions: solution with sucrose and sodium chloride, stirred; ozone approximately 0.08 ppm, about 20 hours
Protocol: A quantity of 4.00 g of sucrose and 0.20 g of sodium chloride were weighed out and dissolved by adding water for injection to make a placebo solution. […] An environment having an ozone concentration of approximately 0.08 ppm by ozone concentration meter was produced using an ozone generator and a blower (initial wind speed approximately 7.2 m/s) to circulate the ozone and make the concentration uniform in a tray having a 40 cm long×90 cm wide×100 cm high glass door. Approximately 15 mL of the reaction stock solution was dispensed into each 20 mL vial. […] Furthermore, the purity was confirmed in accordance with the test conditions of Test Example 1. The degraded solution was freeze dried, and a solution dissolved by a suitable amount of water for injection was taken as a forced-degradation solution. The analogs were fractionated under the following conditions using this solution.

For human PTH (1-34) [lot B], the “Amount of (6) Human PTH (1-34)-Met 8 [O]” value ([1]; listed as B) was 0.07% and the “Amount of (7) Human PTH (1-34)-Met 18 [O]” value (shortened to “Amount of (7) Human PTH”) ([1]; listed as B) was 0.09%.

For human PTH (1-34) [lot D], the “Amount of (6) Human PTH (1-34)-Met 8 [O]” value ([1]; listed as D) was 0.05% and the “Amount of (7) Human PTH” value ([1]; listed as D) was 0.06%.

For human PTH (1-34) [lot E], the “Amount of (6) Human PTH (1-34)-Met 8 [O]” value ([1]; listed as E) was 0.05% and the “Amount of (7) Human PTH” value ([1]; listed as E) was 0.07%.

For human PTH (1-34) [lot G], the “Amount of (6) Human PTH (1-34)-Met 8 [O]” value ([1]; listed as G) was 0.17% and the “Amount of (7) Human PTH” value ([1]; listed as G) was 0.23%.

In the case of CC[C@H](C)[C@H](NC(=O)[C@H](CCC(=O)O)NC(=O)[C@H](CO)NC(=O)[C@@H](NC(=O)[C@@H](N)CO)C(C)C)C(=O)N[C@@H](CCC(N)=O)C(=O)N[C@@H](CC(C)C)C(=O)N[C@@H](CCSC)C(=O)N[C@@H](Cc1cnc[nH]1)C(=O)N[C@@H](CC(N)=O)C(=O)N[C@@H](CC(C)C)C(=O)NCC(=O)N[C@@H](CCCCN)C(=O)N[C@@H](Cc1cnc[nH]1)C(=O)N[C@@H](CC(C)C)C(=O)N[C@@H](CC(N)=O)C(=O)N[C@@H](CO)C(=O)N[C@@H](CCSC)C(=O)N[C@@H](CCC(=O)O)C(=O)N[C@@H](CCCN=C(N)N)C(=O)N[C@H](C(=O)N[C@@H](CCC(=O)O)C(=O)N[C@@H](Cc1c[nH]c2ccccc12)C(=O)N[C@@H](CC(C)C)C(=O)N[C@@H](CCCN=C(N)N)C(=O)N[C@@H](CCCCN)C(=O)N[C@@H](CCCCN)C(=O)N[C@@H](CC(C)C)C(=O)N[C@@H](CCC(N)=O)C(=O)N[C@@H](CC(=O)O)C(=O)N[C@H](C(=O)N[C@@H](Cc1cnc[nH]1)C(=O)N[C@@H](CC(N)=O)C(=O)N[C@@H](Cc1ccccc1)C(=O)O)C(C)C)C(C)C [Human PTH (1-34)], the “Purity after exposure to ozone atmosphere” value [2] is reported as “approximately 20%” and the “Total amount of human PTH (1-34) analogs after exposure to ozone atmosphere” value [2] is reported as 80%.

For human PTH (1-34) [lot A], the “Amount of (6) Human PTH (1-34)-Met 8 [O]” value ([1]; listed as A) was 0.08%.

With human PTH (1-34) [lot F] the “Amount of (6) Human PTH (1-34)-Met 8 [O]” value ([1]; listed as F) was 0.14% and the “Amount of (7) Human PTH” value ([1]; listed as F) was 0.21%.

With human PTH (1-34) [lot H] the “Amount of (6) Human PTH (1-34)-Met 8 [O]” value ([1]; listed as H) was 0.06% and the “Amount of (7) Human PTH” value ([1]; listed as H) was 0.09%.
